According to patent publication US20260242478A1 (published 2026):

B1: Phage-3021 (peptide)
peptide: GGLRCEPMWMCHGF
B2: Phage-3007 (peptide)
peptide: MYHMCRPSWMCEGF
B3: Phage-2994 (peptide)
peptide: LQSMCRPAWMCTGF
B4: Phage-3005 (peptide)
peptide: ALPMCEPFWMCTGF
B5: Phage-3019 (peptide)
peptide: IESRCVPEWMCYGF
B6: Phage-3001 (peptide)
peptide: MMPLCMPTWMCEGF
B7: Phage-3002 (peptide)
peptide: YQLLCKPEWMCVGF
B8: Phage-2999 (peptide)
peptide: IARMCVPEWMCQEL
B9: Phage-3013 (peptide)
peptide: STMMCVPPWMCMGF
B10: Phage-3011 (peptide)
peptide: WEPVCKPDWMCNGF
B11: Phage-3000 (peptide)
peptide: EIPVCRPAWMCLGL
B12: Phage-3016 (peptide)
peptide: ANVACIPPWMCLGF
B13: Phage-3003 (peptide)
peptide: MLPWCVPHWMCDGF
B14: Phage-3012 (peptide)
peptide: QWLRCEPEWMCIGF
B15: Phage-3018 (peptide)
peptide: HEAMCRPTWMCHGF
B16: Phage-3006 (peptide)
peptide: VMVECRPAWMCNGF
B17: Phage-3004 (peptide)
peptide: VEPMCRPAWMCLGF
B18: Phage-3025 (peptide)
peptide: PLVVCKPAWMCIGF
B19: Phage-3015 (peptide)
peptide: PAEWCIPVWMCTGF
B20: Phage-3024 (peptide)
peptide: IERLCMPMWMCTGL
B21: Phage-3022 (peptide)
peptide: DHLMCKPSWMCKGF
B22: Phage-2997 (peptide)
peptide: MSPRCVPMWMCDWL
B23: Phage-3009 (peptide)
peptide: WWPSCVPEWMCAGL
B24: Phage-3023 (peptide)
peptide: TVPKCVPNWMCDWL
B25: Phage-3008 (peptide)
peptide: SEVMCVPQWMCNGF
B26: Phage-2998 (peptide)
peptide: VVAHCVPSWMCTGF
B27: Phage-3017 (peptide)
peptide: VQGVCVPSWMCTGF
B28: Phage-2995 (peptide)
peptide: AIAHCIPQWMCSGF
B29: Phage-3010 (peptide)
peptide: GMPYCVPEWMCSWL
B30: Phage-3014 (peptide)
peptide: AELLCVPTWMCMGF
B31: Phage-3020 (peptide)
peptide: EEKMCTPQWMCSGF
B32: Phage-2996 (peptide)
peptide: PEALCMPPWMCHGF

Experiments:
PSMA Fab (006 PSMA Fab) [1] = biological target: T1, PSMA Fab (006 PSMA Fab); experiment: clonal phage ELISA; biotinylated PSMA Fab on neutravidin plate, blocking buffer alone; anti-M13 HRP detection;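 also: crude clonal phage supernatants added without washing to wells pretreated with blocking buffer with or without PSMA antigen, short incubation, then washed before detecting bound phage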
T1 construct: also called Anti-PSMA Fab; anti-PSMA Fab
Procedure: (§1) Clonal phage were harvested as crude supernatants and screened via standard ELISAs. […] Prior to the addition of clonal phage. wells were incubated with blocking buffer and PSMA antigen or blocking buffer alone. Without washing or aspirating, clonal phage supernatants were then added to the wells and incubated for a short time. Wells were then washed followed by detection of bound phage using a horse radish conjugated anti-M13 antibody.

PSMA Fab (006 PSMA Fab) [2] = biological target: T1, PSMA Fab (006 PSMA Fab); experiment: clonal phage ELISA; biotinylated PSMA Fab on neutravidin plate, wells pre-incubated with PSMA antigen (competitor); anti-M13 HRP detection
Procedure: as §1

[3] = biological target: T2, Anti-PSMA Fab (006 PSMA Fab) (biotinylated (site not stated)); experiment: clonal phage ELISA, biotinylated PSMA Fab on neutravidin plates, anti-M13 HRP detection
T2 construct: Biotinylated PSMA Fab captured on neutravidin coated plates

[4] = biological target: T2, Anti-PSMA Fab (006 PSMA Fab); experiment: clonal phage ELISA on PSMA Fab pre-incubated with PSMA antigen as competitor, anti-M13 HRP detection
Procedure: as §1

PSMA Fab [5] = biological target: T3, PSMA Fab (biotinylated (site not stated)); experiment: phage ELISA; PSMA Fab on plate pre-incubated with PSMA antigen as competitor, anti-M13 HRP detection;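 also: crude clonal phage supernatants added to Fab-coated wells still holding PSMA antigen in blocking buffer, with bound phage as read-out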
T3 construct: also called Anti-PSMA Fab; 006 PSMA Fab

PSMA Fab [6] = biological target: T3, PSMA Fab; experiment: phage ELISA; biotinylated PSMA Fab on neutravidin plate, clonal phage supernatant, anti-M13 HRP detection;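 also: wells preincubated with PSMA antigen in blocking buffer or with blocking buffer only before clonal phage were added for a short incubation, then bound phage detected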
Procedure: as §1

Binder | Phage binding ELISA signal, Anti-PSMA Fab [3] | Phage binding ELISA signal, Anti-PSMA Fab with PSMA antigen [4] | phage binding ELISA signal (Anti-PSMA Fab, PSMA antigen present) (PSMA Fab [5]) | Phage binding ELISA signal, Anti-PSMA Fab (PSMA Fab [6]) | other results
B1 | – | – | – | – | Phage binding ELISA signal, Anti-PSMA Fab (PSMA Fab (006 PSMA Fab) [1]): 2.2; Phage binding ELISA signal, Anti-PSMA Fab in presence of PSMA antigen (PSMA Fab (006 PSMA Fab) [2]): 0.122
B2 | 2.21 | 0.142 | – | – | –
B3 | – | – | 0.0839 | 2.22 | –
B4 | 2.21 | 0.0628 | – | – | –
B5 | – | – | – | – | Phage binding ELISA signal, Anti-PSMA Fab (PSMA Fab (006 PSMA Fab) [1]): 2.2; Phage binding ELISA signal, Anti-PSMA Fab in presence of PSMA antigen (PSMA Fab (006 PSMA Fab) [2]): 0.0726
B6 | – | – | 0.075 | 2.22 | –
B7 | – | – | 0.0672 | 2.21 | –
B8 | – | – | 0.107 | 2.22 | –
B9 | 2.21 | 0.0775 | – | – | –
B10 | 2.21 | 0.08 | – | – | –
B11 | – | – | 0.0698 | 2.22 | –
B12 | 2.2 | 0.109 | – | – | –
B13 | – | – | 0.132 | 2.21 | –
B14 | 2.21 | 0.212 | – | – | –
B15 | – | – | – | – | Phage binding ELISA signal, Anti-PSMA Fab (PSMA Fab (006 PSMA Fab) [1]): 2.2; Phage binding ELISA signal, Anti-PSMA Fab in presence of PSMA antigen (PSMA Fab (006 PSMA Fab) [2]): 0.0722
B16 | 2.21 | 0.0636 | – | – | –

Binder | Phage binding ELISA signal, Anti-PSMA Fab [3] | Phage binding ELISA signal, Anti-PSMA Fab with PSMA antigen [4] | phage binding ELISA signal (Anti-PSMA Fab, PSMA antigen present) (PSMA Fab [5]) | Phage binding ELISA signal, Anti-PSMA Fab (PSMA Fab [6]) | other results
B17 | 2.21 | 0.0882 | – | – | –
B18 | – | – | – | – | Phage binding ELISA signal, Anti-PSMA Fab (PSMA Fab (006 PSMA Fab) [1]): 2.19; Phage binding ELISA signal, Anti-PSMA Fab in presence of PSMA antigen (PSMA Fab (006 PSMA Fab) [2]): 0.0979
B19 | 2.2 | 0.0732 | – | – | –
B20 | – | – | – | – | Phage binding ELISA signal, Anti-PSMA Fab (PSMA Fab (006 PSMA Fab) [1]): 2.19; Phage binding ELISA signal, Anti-PSMA Fab in presence of PSMA antigen (PSMA Fab (006 PSMA Fab) [2]): 0.0679
B21 | – | – | – | – | Phage binding ELISA signal, Anti-PSMA Fab (PSMA Fab (006 PSMA Fab) [1]): 2.19; Phage binding ELISA signal, Anti-PSMA Fab in presence of PSMA antigen (PSMA Fab (006 PSMA Fab) [2]): 0.0924
B22 | – | – | 0.0821 | 2.22 | –
B23 | 2.21 | 0.129 | – | – | –
B24 | – | – | – | – | Phage binding ELISA signal, Anti-PSMA Fab (PSMA Fab (006 PSMA Fab) [1]): 2.19; Phage binding ELISA signal, Anti-PSMA Fab in presence of PSMA antigen (PSMA Fab (006 PSMA Fab) [2]): 0.0864
B25 | 2.21 | 0.0981 | – | – | –
B26 | – | – | 0.0901 | 2.22 | –
B27 | 2.2 | 0.0875 | – | – | –
B28 | – | – | 0.0878 | 2.22 | –
B29 | 2.21 | 0.0827 | – | – | –
B30 | 2.2 | 0.0679 | – | – | –
B31 | – | – | – | – | Phage binding ELISA signal, Anti-PSMA Fab (PSMA Fab (006 PSMA Fab) [1]): 2.2; Phage binding ELISA signal, Anti-PSMA Fab in presence of PSMA antigen (PSMA Fab (006 PSMA Fab) [2]): 0.0688
B32 | – | – | 0.0657 | 2.22 | –
